Results: PMC10457309

Target: HH-120 (IgM-like hACE2-Fc fusion protein) (UniProt Q9BYF1)
Assay: SPR

SARS-CoV-2 RBD (amino acids 316-512 of the S protein in the SARS-CoV-2 D614 strain) (from UniProt P0DTC2 316-512) (domain or fragment)
Kd: 26.4 nM
